B1: BM02 (antibody, from another filing, V domains shown)
VH: QVQLVQSGAEVKKPGASVKVSCKASGYTFRSYNMHWVRQAPGQGLEWMGLIYPGNAVTSYSQKFKDRVTMTVDKSTSTAYMELSSLRSEDTAVYYCAKDDYFRGGSYAMDYWGQGTTVTVSS
VL: EIVLTQSPDFQSVTPKEKVTITCRASQSIRNNLHWYQQKPDQSPKLLIKYASQSIRGVPSRFSGSGSGTDFTLTINSLEAEDAATYYCQQSHSWPYTFGGGTKVEIKR
B2: BM01 (antibody, from another filing, V domains shown)
VH: QVQLVQSGAEVKKPGASVKVSCKASGYTFTRYWMHWVRQAPGQGLEWMGEINPSQGGTNYNEKFKSRVTMTVDKSISTAYMELSRLRSDDTAVYYCAIGSNYGGLVYWGQGTLVTVSS
VL: EIVLTQSPATLSLSPGERATLSCRASESLDNYGISFMNWFQQKPGQAPRFLIYAASNQGSGIPARFSGSGSGTDFTLTISSLQPEDTAVYFCQQSKEVPRTFGGGTKVEIKR

How the values were obtained:
[1] = target: human mature BMP9 (human) (UniProt Q9UK05); experiment: competition ELISA: antibody mixed with 0.2 nM BMP9-biotin, binding to coated ALK1 (1 µg/ml) detected
[2] = target: human mature BMP9 (human) (UniProt Q9UK05); experiment: competition ELISA: antibody mixed with 0.5 nM BMP9-biotin, binding to coated ALK1 (1 µg/ml) detected
[3] = target: human mature BMP9 (human) (UniProt Q9UK05); experiment: competition ELISA: antibody mixed with 1.5 nM BMP9-biotin, binding to coated BMPRII (2 µg/ml) detected
[4] = target: human mature BMP9 (human) (UniProt Q9UK05); experiment: competition ELISA: antibody mixed with 0.6 nM BMP9-biotin, binding to coated BMPRII (1 µg/ml) detected
[5] = target: human mature BMP9 (human) (UniProt Q9UK05); experiment: competition ELISA: antibody mixed with 5 nM BMP9-biotin, binding to coated ActRIIA (5 µg/ml) detected
[6] = target: human mature BMP9 (human) (UniProt Q9UK05); experiment: competition ELISA: antibody mixed with 15 nM BMP9-biotin, binding to coated ActRIIB (5 µg/ml) detected

Sequence of human mature BMP9 (human) (Q9UK05 320-429): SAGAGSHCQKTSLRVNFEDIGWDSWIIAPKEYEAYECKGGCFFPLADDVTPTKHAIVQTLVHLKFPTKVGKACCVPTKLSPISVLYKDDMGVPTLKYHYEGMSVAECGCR

Row | Binder | IC50 (read off the curve) [1] [nM] | IC50 (read off the curve) [2] [nM] | IC50 (read off the curve) [3] [nM] | IC50 (read off the curve) [4] [nM] | IC50 (read off the curve) [5] [nM] | IC50 (read off the curve) [6] [nM]
1 | B1 | 0.06 | 0.1 | – | – | – | –
2 | B2 | – | – | 2 | 0.1 | 2 | 8

From patent US20240083991A1
